Assay results from patent publication US20230110188A1 (ARGENX IIP, published 2023).
Positions count from the first letter of the chain named.

B1: 3D10a (antibody, human IgG1, kappa, L234A L235A, V domains shown)
VH: EVQLVESGGGLVKPGGSLRLSCAASGFTFSASTMAWVRQAPGKGLEWVSSVSGDSHHIYYADSLKGRFTISRDNAKNSLYLQMNSLRAEDTAVYYCARERLLRLGVGFDSWGQGTLVTVSS
VL: DIQMTQSPSSLSASVGDRVTITCRASQRISGFVNWYQQKPGKAPKLLIYAASTLQSGVPSRFSGSGSGTDFTLTISSLQPEDFATYYCQQSYSPLYTFGQGTKLEIKR
B2: 4D3 (antibody, human IgG1, kappa, L234A L235A, V domains shown)
VH: B1 VH with A31S, S32Y, A35T, V51I, G53S, D54G, S55G, H57Y, A61T, S110F
VL: B1 VL with R28S, F32Y, V33L, P94A
B3: 3D9b (antibody, human IgG1, kappa, L234A L235A, V domains shown)
VH: EVQLVESGGGLVKPGGSLRLSCAASGFTFSTYTMHWVRQAPGKGLEWVSSISSRSAYKYYADSVKGRFTISRDNAKNSLYLQMNSLRAEDTAVYYCARDFFQLGPPRFDSWGQGTLVTVSS
VL: B1 VL with G31S, V33L, A50G, T53N, L95S
B4: 3F6c (antibody, human IgG1, kappa, L234A L235A, V domains shown)
VH: EVQLVESGGGLVKPGGSLRLSCAASGFTFSSYTMDWVRQAPGKGLEWVSSIGSNGDYIYYADSVRGRFTISRDNAKNSLYLQMNSLRAEDTAVYYCARGQLAVAGTHFDYWGQGTLVTVSS
VL: B1 VL with R28K, I29V, S30N, G31K, F32Y, Y96S

The binders below were run against T1, Human MuSK (R&D Systems, cat. 10189-MK, histidine tag) (human, UniProt O15146 24-495) (assay: SPR (Biacore), MuSK-coated chip presaturated with 500 nM 3F6c (competitor)).
T1 construct: Bought protein; also called human monomeric MuSK-6xhis; not shown: histidine tag (6xhis)
T1 sequence: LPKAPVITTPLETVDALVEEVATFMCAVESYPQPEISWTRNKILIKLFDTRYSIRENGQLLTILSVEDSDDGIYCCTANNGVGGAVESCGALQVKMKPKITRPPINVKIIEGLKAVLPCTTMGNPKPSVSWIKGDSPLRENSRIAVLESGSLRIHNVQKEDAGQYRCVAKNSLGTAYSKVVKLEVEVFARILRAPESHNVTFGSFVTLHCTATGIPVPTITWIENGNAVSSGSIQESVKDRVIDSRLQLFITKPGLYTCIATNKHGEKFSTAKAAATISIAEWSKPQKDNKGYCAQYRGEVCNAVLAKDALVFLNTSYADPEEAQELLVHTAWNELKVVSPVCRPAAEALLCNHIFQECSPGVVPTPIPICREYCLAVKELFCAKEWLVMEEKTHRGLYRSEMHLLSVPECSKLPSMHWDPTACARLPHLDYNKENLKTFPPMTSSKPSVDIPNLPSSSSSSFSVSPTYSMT
Procedure: (§1) A chip was coated with ˜5000 RU of human MuSK (Lot nr DHUCO 11908A, batch nr 1089_MK). In a first experiment the saturating concentration of the pre-leads was determined. This is the concentration where the amplitude of a specific pre-lead doesn't increase anymore when additional pre-lead is injected on the immobilized MuSK.
With B1 the “amplitude of prelead after presaturating MuSK (RU)” value was 75 RU, the “extra amplitude (%)” value was 3.2% and the “normalized extra amplitude (%)” value was 1.4%.
For B2, the “amplitude of prelead after presaturating MuSK (RU)” value was 68 RU, the “extra amplitude (%)” value was 2.8% and the “normalized extra amplitude (%)” value was 1.1%.
For B3, the “amplitude of prelead after presaturating MuSK (RU)” value was 191 RU, the “extra amplitude (%)” value was 11.5% and the “normalized extra amplitude (%)” value was 9.7%.
For B4, the “amplitude of prelead after presaturating MuSK (RU)” value was 64 RU, the “extra amplitude (%)” value was 1.8% and the “normalized extra amplitude (%)” value was 0%.

These binders were tested against T1, Human MuSK (R&D Systems, cat. 10189-MK, …) (assay: SPR (Biacore), koff at pH 5.5 over koff at pH 7.4).
Excerpt: (§2) In order to study pH dependent binding of our antibodies to MuSK, the Biacore was used with the same setup as described in the paragraph entitled “Binding affinity for mouse, human and rhesus monkey recombinant MuSK in Biacore”. 6. […] For the other antibodies there is no real difference observed between pH 7.4 and 5.5.
With B1 the “Fold difference (5.5/7.4) of koff” value was 0.6 fold.
For B2, the “Fold difference (5.5/7.4) of koff” value was 1.1 fold.
B3 was tested, and the “Fold difference (5.5/7.4) of koff” value was 0.3 fold.
For B4, the “Fold difference (5.5/7.4) of koff” value was 2.5 fold.

What follows are binders tested against T2, human monomeric MuSK FLAG streptavidin (in house produced, batch 27-6-2019) (human, UniProt O15146 24-495) (assay: epitope binning ELISA (coated anti-MuSK Fab, MuSK, IgG, anti-Fc HRP); competitor: 3D9b).
T2 construct: also called full length MuSK; not shown: FLAG and streptavidin tags
T2 sequence: T1 sequence
Procedure: (§3) For epitope binning—An ELISA plate was coated at 1 μg/ml of the anti-MuSK Fabs and incubated overnight at 4° C. Next, the plate was wash with PBS followed by blocking with 1% casein in PBS for one hour. After washing the plate, 1 μg/ml of human monomeric MuSK (in house produced, batch 27-6-2019) was incubated for one hour at RT. The plate was washed and anti-MuSK antibodies at 0.3-10 μg/ml were added to the plate and incubated for one hour at RT. After washing the plate, detection antibody (goat anti-human Fc HRP (Jackson Immunoresearch cat. 109-035-098)) was added at 5000 fold dilution in PBS 0.1% casein. The plate was incubated for one hour at RT and washed with PBS-T. TMB was added and the reaction was stopped by adding H2504. […]
(§4) For the epitope binning ELISA, a plate was coated with anti-MuSK Fab and human monomeric MuSK was added after blocking the plate. Next the different antibodies were added and allowed to bind.
With B1 the “OD 450 nm” value was 0.115 OD.
B2 was tested, and the “OD 450 nm” value was 0.061 OD.
B3 was tested, and the “OD 450 nm” value was 0.15 OD.
In the case of B4, the “OD 450 nm” value is reported as 0.133 OD.

Each binder was assayed against T1, Human MuSK (R&D Systems, cat. 10189-MK, …) (assay: SPR (Biacore), MuSK-coated chip, antibody alone (run of first antibody 3D9b)).
Procedure: as §1
With B1 the “amplitude of prelead without presaturating MuSK (RU)” value was 189 RU.
In the case of B2, the “amplitude of prelead without presaturating MuSK (RU)” value is reported as 188 RU.
B3 was tested, and the “amplitude of prelead without presaturating MuSK (RU)” value was 3970 RU.
For B4, the “amplitude of prelead without presaturating MuSK (RU)” value was 235 RU.

Each binder was assayed against T1, Human MuSK (R&D Systems, cat. 10189-MK, …) (assay: SPR (Biacore), MuSK-coated chip, antibody alone (run of first antibody 3F6c)).
Procedure: as §1
With B1 the “amplitude of prelead without presaturating MuSK (RU)” value was 2370 RU.
In the case of B2, the “amplitude of prelead without presaturating MuSK (RU)” value is reported as 2390 RU.
In the case of B3, the “amplitude of prelead without presaturating MuSK (RU)” value is reported as 1660 RU.
B4 was tested, and the “amplitude of prelead without presaturating MuSK (RU)” value was 3640 RU.

These binders were tested against T1, Human MuSK (R&D Systems, cat. 10189-MK, …) (assay: SPR (Biacore), antibody captured on anti-hFc chip; 1.25 nM; dissociation pH 7.4).
Excerpt: as §2
B1 showed a koff of 0.00016 s⁻¹.
B2 showed a koff of 0.00015 s⁻¹.
With B3 the koff was 0.00014 s⁻¹.
For B4, the koff was 7e-05 s⁻¹.

The binders below were run against T1, Human MuSK (R&D Systems, cat. 10189-MK, …) (assay: SPR (Biacore), pH 7.4 (summary table, repeats the average of Table 16)).
Excerpt: as §2
Binder B2 has a koff of 0.00014 s⁻¹.
For B3, the koff was 0.00012 s⁻¹.
With B4 the koff was 8e-05 s⁻¹.

These binders were tested against T2, human monomeric MuSK FLAG streptavidin … (assay: epitope binning ELISA (coated anti-MuSK Fab, MuSK, IgG, anti-Fc HRP); competitor: 3D10a).
Procedure: as §3, §4
For B1, the “OD 450 nm” value was 0.049 OD.
B2 was tested, and the “OD 450 nm” value was 0.008 OD.
B3 was tested, and the “OD 450 nm” value was 0.06 OD.
In the case of B4, the “OD 450 nm” value is reported as 0.057 OD.
